Biological target: BicDR1 E165R/E167K-GFP (mouse) (UniProt A0JNT9)
UniProt A0JNT9, sequence (A0JNT9 whole entry E165R/E167K): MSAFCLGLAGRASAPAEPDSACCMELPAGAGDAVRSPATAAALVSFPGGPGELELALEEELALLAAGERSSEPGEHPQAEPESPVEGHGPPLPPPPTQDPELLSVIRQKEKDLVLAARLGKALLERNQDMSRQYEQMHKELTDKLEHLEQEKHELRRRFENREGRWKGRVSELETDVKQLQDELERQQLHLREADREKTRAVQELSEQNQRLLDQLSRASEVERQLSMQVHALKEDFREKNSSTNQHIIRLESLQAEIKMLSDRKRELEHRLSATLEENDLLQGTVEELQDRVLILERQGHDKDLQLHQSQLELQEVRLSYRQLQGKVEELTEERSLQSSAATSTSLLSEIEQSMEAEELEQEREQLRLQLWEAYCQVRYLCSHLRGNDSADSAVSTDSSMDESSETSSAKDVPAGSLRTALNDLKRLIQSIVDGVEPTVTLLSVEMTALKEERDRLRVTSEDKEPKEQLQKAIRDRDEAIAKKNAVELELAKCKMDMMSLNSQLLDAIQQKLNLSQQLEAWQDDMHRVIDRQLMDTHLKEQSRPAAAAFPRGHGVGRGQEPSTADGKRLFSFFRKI

reduction of recruitment against BicDR1: 50%
Substance: dynein long tail (SNAP-DYNC1H1 1-1,074-GST with associated chains) (from UniProt Q14204;O43237;P63172;P63167;Q9NP97) (complex)

— paper PMC6810841
